According to patent publication US20220242941A1 (NOVOBIND LIVESTOCK THERAPEUTICS, published 2022):
Substitutions are numbered along the chain they refer to.

T1: Eimeria maxima MIC2 (Eimeria maxima)
T1 construct: Recombinant antigen coated on ELISA wells; also called EmMIC2
T1 chain: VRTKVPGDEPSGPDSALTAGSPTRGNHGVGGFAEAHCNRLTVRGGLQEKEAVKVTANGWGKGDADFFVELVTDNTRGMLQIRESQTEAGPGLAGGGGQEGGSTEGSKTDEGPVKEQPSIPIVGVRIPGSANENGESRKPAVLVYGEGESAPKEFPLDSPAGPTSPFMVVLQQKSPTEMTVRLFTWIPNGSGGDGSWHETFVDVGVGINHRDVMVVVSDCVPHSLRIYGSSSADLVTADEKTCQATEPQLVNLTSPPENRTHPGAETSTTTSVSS

T2: Eimeria tenella MIC2 (Eimeria tenella)
T2 construct: Recombinant antigen coated on ELISA wells; also called EtMIC2
T2 chain: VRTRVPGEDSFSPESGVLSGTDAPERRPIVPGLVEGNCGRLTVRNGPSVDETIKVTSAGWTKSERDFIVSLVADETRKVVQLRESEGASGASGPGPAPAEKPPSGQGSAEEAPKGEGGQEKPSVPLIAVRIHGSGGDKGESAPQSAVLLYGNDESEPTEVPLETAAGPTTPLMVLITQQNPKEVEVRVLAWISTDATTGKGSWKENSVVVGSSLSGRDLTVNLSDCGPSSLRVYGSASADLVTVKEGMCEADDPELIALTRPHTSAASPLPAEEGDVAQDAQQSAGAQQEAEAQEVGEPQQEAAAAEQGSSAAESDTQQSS

B1: NBX17024 (VHH)
VHH: QVQLQESGPGLVKPSQTLSLTCTVSGGSITTSYSTWSWIRQPPGKGLEWMGVIADDGSAEYSPSLKSRTSISLDTSKNQFSLQLSSVTPEDTAVYYCARRGGAWGSNWWAYHMDDWGKGTLVTVSS
B2: NBX17019 (VHH)
VHH: QVQLQESGGGLVQAGGSLRLSCTGPGSTFSSYAVGWYRQAPGGNREWVASISSSGEITRYADSVTGRFTISRDNAKNTVDLQMNSLRPEDTAVYYCAIGTMARGKGTLVTVSS
B3: NBX17020 (VHH)
VHH: QVQLQQSGGGLVQAGGSLRLSCAGSGRPFGSYVMGWYRQAPGEQREMVARMTSAGSGGVADYGESVKGRFAISRDYAKNMVFLQMNSLKPEDTAVYYCWSALGYWGQGTQVTVSS
B4: NBX0710 (VHH)
VHH: QVQLQESGGGLVQAGGSLRLSCAASGSIFSINAMGWYRQAPGKQRELVAGITSGGSTNYADSVKGRFTISRDNAKNTVYLQMNSLKPEDTAVYYCAADYVGLGDDAFYVPYWGQGTQVTVSA
B5: NBX0751 (VHH)
VHH: QVQLQESGGGLVQPGGSLRLSCAVSGTIFSITPMGWYRQAPGKQRELVASISGGGSTNYTDPVKGRFTISRDKARNTVYLQMNNLKPEDTAVYYCNAASLAIVRGINNYWGQGTQVTVSS
B6: NBX0749 (VHH)
VHH: QVQLQESGGGLVQAGGSLRLSCATSGSIFSRDTMAWYRQVPGEQRELVAYITNFGGTNHADSVKGRFTISRDNAKNTVYLQMNSLKPEDTAVYYCAAGLLSLRTHTWEYWGQGTQVTVSS
B7: NBX0748 (VHH)
VHH: B6 VHH with A23V, T24A, T104S, Y109L
B8: NBX0728 (VHH)
VHH: B6 VHH with T24A, G26A, I51V, G98D, L100I
B9: NBX0726 (VHH)
VHH: QVQLQQSGGGLVQAGGSVRLSCTANGLTFGNYAMAWFRRTPGKERAFVGGMSASGAGTYYLDSVKGRFTISRDTAKNTVYLEMNSLKAEDTAVYYCAANSIYPGRRWASYDYWGQGTQVTVSS
B10: NBX0727 (VHH)
VHH: QVQLQQSGGGLVQAGGSVRLSCAASGLTLGNYALAWFRRTPGKEREFVAGMSGSGAGTYYLDSVNGRFTISRDNAKNTLYLQMNSLKAEDTAVYYCAANSIYPGRRWASYDYWGQGTQVTVSS

biological target: T3, GST fusion of the EmAMA1-binding peptide of EmRON2 (Eimeria maxima, UniProt P08515 1-218 = GST); assay: phage ELISA, wells coated with GST-RON2 peptide
T3 construct: Expressed in E. coli, purified as the other antigens but without TEV cleavage, so a His tag and TEV site probably remain; also called GST-RON2 peptide
T3 sequence (P08515 1-218, tags or fused parts left off): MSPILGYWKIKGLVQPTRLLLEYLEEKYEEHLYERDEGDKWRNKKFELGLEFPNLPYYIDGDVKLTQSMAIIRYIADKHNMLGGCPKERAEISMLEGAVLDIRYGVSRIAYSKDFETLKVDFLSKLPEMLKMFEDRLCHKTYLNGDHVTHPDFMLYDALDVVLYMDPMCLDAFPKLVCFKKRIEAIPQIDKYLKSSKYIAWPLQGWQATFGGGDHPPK

| Binder | binding relative to GST-coated wells [times] | binding relative to PBS-coated wells [times] |
| --- | --- | --- |
| B1 | ≥ 3 | ≥ 4 |
| B2 | ≥ 3 | ≥ 4 |
| B3 | ≥ 3 | ≥ 4 |

Biological target: T1, Eimeria maxima MIC2
Assay: phage ELISA, antigen-coated wells;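 note: antigen dissolved in PBS and coated onto wells, with negative-control wells holding PBS alone as the reference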
Source text: (§1) Black bars show binding to wells coated with the antigen specified in Tables 1 and 2 dissolved in phosphate-buffered saline (PBS). Grey bars are negative controls that show binding to wells coated with PBS only.

| Binder | binding relative to PBS-coated wells [times] |
| --- | --- |
| B4 | ≥ 4 |
| B5 | ≥ 4 |

Biological target: T2, Eimeria tenella MIC2
Assay: phage ELISA, antigen-coated wells;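 note: antigen dissolved in PBS and coated onto wells, with negative-control wells holding PBS alone as the reference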
Source text: as §1

| Binder | binding relative to PBS-coated wells [times] |
| --- | --- |
| B6 | ≥ 4 |
| B7 | ≥ 4 |
| B8 | ≥ 4 |
| B9 | ≥ 4 |
| B10 | ≥ 4 |
